Results published in the supplement of paper PMC9170038.

System: MS2 coat protein
Assay: apparent KD of MS2 coat protein; designed switch direction (-1 OFF switch, 1 ON switch): -1; higher = weaker reporter binding
In short: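 The apparent KD reported per design is the median over clusters of curve fits to normalised cluster fluorescence. The RNA switches were transcribed on Illumina chips by stalled E. coli RNA polymerase. SNAP-549-labelled MS2 coat protein was titrated from 0.7 or 1.5 nM, doubling up to 3 µM, in Tris-HCl pH 7.5 buffer containing KCl, MgCl2, BSA, DTT, tRNA and Tween-20, with no input, 200 uM small-molecule ligand, or an oligonucleotide input.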

[1] = Eterna round: R95, input ligand: FMN 200 uM
[2] = Eterna round: R95, input ligand: microRNA oligo, concentration not stated
[3] = Eterna round: R95, input ligand: none
[4] = input ligand: microRNA oligo, concentration not stated

## CUUAGGUGAGGAUAUUAGUAGUAAAUAAAUAAAAUUAUUACUGAGAAGGCACAUGAGGAUCACCCAUGUUCCUC [Salish 062 v3] (Eterna round: R97, puzzle: Exclusion 4)
Input ligand: FMN 200 uM
  apparent KD of MS2 coat protein: 0.548 µM
Input ligand: none
  apparent KD of MS2 coat protein: 0.037 µM

## CUUCACCCACCAGAGCUCACCCACAUACCUGCUCAGGUGACAUGAGGAUCACCCAUGUUUUUUGCCCGUCUUAUCUU [Atquertebi] (puzzle: Sensor v3, turn-off variant 2)
[1]
  apparent KD of MS2 coat protein: 0.0331 µM
[2]
  apparent KD of MS2 coat protein: 0.181 µM
[3]
  apparent KD of MS2 coat protein: 0.0343 µM

## CUUCAGUCAGGAUAUCUGCACGCUGGUGAGACCGGACGGAAGGAGAAGGGACAUGAGGAUCACCCAUGUAAAGC [Xesoar] (puzzle: Exclusion 4)
[2]
  apparent KD of MS2 coat protein: 0.0157 µM

## CUUCGUAUAGAGGAUAUAGGUUACUACGGUAUCCUAGAAGGCUGUACAUGAGGAUCACCCAUGUACUUCAGAUC [Exclusion 6 - B - 13:d] (puzzle: Exclusion 6)
[2]
  apparent KD of MS2 coat protein: 0.0122 µM

## CUUGUACAUGAGGAUCACCCAUGUUAGGAUAUCUCGCCGUCGGCUUGCCGACGGUAUUAGAGAAGGGACUUGGG [JL Tixe mod 6] (puzzle: Exclusion 1)
[2]
  apparent KD of MS2 coat protein: 0.0508 µM

## CUUGUGUGAGGAUAUGAAUUGCCUGGUCAUCCAGGCUCCUGUCAGAAGGCACAUGAGGAUCACCCAUGUGGGCA [Biatire] (Eterna round: R97, puzzle: Exclusion 4)
Input ligand: FMN 200 uM
  apparent KD of MS2 coat protein: 0.12 µM
Input ligand: none
  apparent KD of MS2 coat protein: 0.882 µM

## CUUGUUUAUGUAGGAUAUGCCUGGCGUGCCUUUGCAGAAGGACAUGAGGAUCACCCAUGUAACAUGAGGCUCACCCAUGUCGCU [salish99_ExNG1_r04_106] (Eterna round: R96, puzzle: Exclusion NG 1)
Input ligand: FMN 200 uM
  apparent KD of MS2 coat protein: 0.434 µM
[4]
  apparent KD of MS2 coat protein: 0.224 µM
Input ligand: none
  apparent KD of MS2 coat protein: 0.292 µM

## CUUUAGUGAGGAUAUCAGUAGUAAUACAAUAGUAUUACUAUUGAGAAGGCACAUGAGGAUCACCCAUGUUCCUC [Mat - Exclusion 4 - Mod of Omei - D80] (puzzle: Exclusion 4)
[2]
  apparent KD of MS2 coat protein: 0.0272 µM

## CUUUAGUGAGGAUAUCGGUAGUAAUACAAUAGUAUUACUACUGAGAAGGCACAUGAGGAUCACCCAUGUUCCUC [Mat - Exclusion 4 - Mod of Omei - D82] (Eterna round: R96, puzzle: Exclusion 4)
Input ligand: FMN 200 uM
  apparent KD of MS2 coat protein: 0.259 µM
[4]
  apparent KD of MS2 coat protein: 0.0253 µM
Input ligand: none
  apparent KD of MS2 coat protein: 0.0299 µM

## CUUUAGUGAGGAUAUCGGUAGUAAUACAAUAGUAUUACUACUGAGAAGGCACAUGAGGAUCACCCAUGUUCCUC [Mat - Exclusion 4 - Mod of Omei - D82] (puzzle: Exclusion 4)
[2]
  apparent KD of MS2 coat protein: 0.0302 µM

## CUUUCGUCUGUGGGUGGUGACAUGAGGAUCACCCAUGUUUUGCUCGUUUUGUCUUGGGCUCGGCGCCCGGGUUCGGG [-25.2, -46.4, A 8%] (Eterna round: R97, puzzle: Sensor, turn-off variant 1)
Input ligand: FMN 200 uM
  apparent KD of MS2 coat protein: 0.467 µM
Input ligand: none
  apparent KD of MS2 coat protein: 0.872 µM

## CUUUUGUGAGGAUAUCAGUAGUAAAAAAAUAUAAUUACUACUGAGAAGGCACAUGAGGAUCACCCAUGUUCCUC [salish99_ex4_r3_023] (puzzle: Exclusion 4)
[2]
  apparent KD of MS2 coat protein: 0.0401 µM

## CUUUUGUGAGGAUAUCAGUAGUAAAUAAAUAAAAUUAUUACUGAGAAGGCACAUGAGGAUCACCCAUGUUCCUC [salish99_ex3_r3_086] (puzzle: Exclusion 4)
[2]
  apparent KD of MS2 coat protein: 0.0369 µM

## CUUUUGUGAGGAUAUCAUUAGUAAAAAAAUAAAAUUACUACUGAGAAGGCACAUGAGGAUCACCCAUGUUCCUC [salish99_ex4_r3_034] (puzzle: Exclusion 4)
[2]
  apparent KD of MS2 coat protein: 0.0376 µM

## CUUUUGUGAGGAUAUUAGUAGUAAAUGAAUAAAAUUAUUACUAAGAAGGCACAUGAGGAUCACCCAUGUUCCUC [Mat - Exclusion 4 - Eli Mod - D1] (Eterna round: R97, puzzle: Exclusion 4)
Input ligand: FMN 200 uM
  apparent KD of MS2 coat protein: 0.393 µM
Input ligand: none
  apparent KD of MS2 coat protein: 0.0544 µM

## CUUUUUGUUGAGGAUAUGCACCAGCUCACUGACGCAGAAGGCGACACAUGAGGAUCACCCAUGUCAGUUCGCGU [salish99_ex6_r004_431] (Eterna round: R97, puzzle: Exclusion 6)
Input ligand: FMN 200 uM
  apparent KD of MS2 coat protein: 0.0215 µM
Input ligand: none
  apparent KD of MS2 coat protein: 0.0168 µM

## GAAAAGGUAGAGGAUAUUUCAGAUCAAAGCUGCAAAGAAGGCUGCACAUGAGGAUCACCCAUGUGGUCAACAAA [Mod of Quesina 13 - Jieux - Exclusion 6] (Eterna round: R97, puzzle: Exclusion 6)
Input ligand: FMN 200 uM
  apparent KD of MS2 coat protein: 0.0661 µM
Input ligand: none
  apparent KD of MS2 coat protein: 0.0211 µM

## GAAAAGGUAGGAUAUACGAAAAAAAAGGGUAGAAAAAAAACACAUGAGGAUCACCCAUGUAGAAGGACCAAAAG [Mat - Exclusion 2 - Tesla mod - D30] (Eterna round: R96, puzzle: Exclusion 2)
[4]
  apparent KD of MS2 coat protein: 0.0253 µM

## GAAAAGGUAGGAUAUACGAAAAAAAAGGGUAGAAAAAAAACACAUGAGGAUCACCCAUGUAGAAGGACCAAAAG [salish99_ex2_r3_015] (puzzle: Exclusion 2)
[1]
  apparent KD of MS2 coat protein: 0.0578 µM
[2]
  apparent KD of MS2 coat protein: 0.0287 µM
[3]
  apparent KD of MS2 coat protein: 0.0272 µM

## GAAAAGGUAGGAUAUACGAAAAAAAAGGGUAGAAAAAAAACACAUGAGGAUCACCCAUGUAGAAGGACCGAAAG [salish99_ex2_r3_037] (puzzle: Exclusion 2)
[1]
  apparent KD of MS2 coat protein: 0.0585 µM
[2]
  apparent KD of MS2 coat protein: 0.0368 µM
[3]
  apparent KD of MS2 coat protein: 0.0327 µM

## GAAAAGGUAGGAUAUACGAAAAAAUAGGGUAGAAAAAAAACACAUGAGGAUCACCCAUGUAGAAGGACCAAAAG [salish99_ex2_r3_081] (puzzle: Exclusion 2)
[1]
  apparent KD of MS2 coat protein: 0.0476 µM
[2]
  apparent KD of MS2 coat protein: 0.0337 µM
[3]
  apparent KD of MS2 coat protein: 0.0275 µM

## GAAAAGGUAGGAUAUACGAAAAAUAAGGGUAGAAAAAAAACACAUGAGGAUCACCCAUGUAGAAGGACCAAAAG [salish99_ex2_r3_082] (puzzle: Exclusion 2)
[1]
  apparent KD of MS2 coat protein: 0.0657 µM
[2]
  apparent KD of MS2 coat protein: 0.0278 µM
[3]
  apparent KD of MS2 coat protein: 0.033 µM

## GAAAAGGUAGGAUAUACGAAAAUAAAGGGUAGAAAAAAAACACAUGAGGAUCACCCAUGUAGAAGGACCAAAAG [salish99_ex2_r3_083] (puzzle: Exclusion 2)
[1]
  apparent KD of MS2 coat protein: 0.0683 µM
[2]
  apparent KD of MS2 coat protein: 0.0334 µM
[3]
  apparent KD of MS2 coat protein: 0.0364 µM

## GAAAAGGUAGGAUAUACGAAUAAAAAGGGUAGAAAAAAAACACAUGAGGAUCACCCAUGUAGAAGGACCAAAAG [salish99_ex2_r3_085] (puzzle: Exclusion 2)
[1]
  apparent KD of MS2 coat protein: 0.0677 µM
[2]
  apparent KD of MS2 coat protein: 0.025 µM
[3]
  apparent KD of MS2 coat protein: 0.0244 µM

## GAAAAGGUAGGAUAUGCGAAAAAAAAGGGUAGAAAAAAAACACAUGAGGAUCACCCAUGUAGAAGGACCAAAAG [salish99_ex2_r3_031] (puzzle: Exclusion 2)
[1]
  apparent KD of MS2 coat protein: 0.0261 µM
[2]
  apparent KD of MS2 coat protein: 0.0312 µM
[3]
  apparent KD of MS2 coat protein: 0.032 µM

## GAAAAGUGAGGAUAUGGUAAAAGAAAAAGAAGAAGAAAACUCCAGAAGGCACAUGAGGAUCACCCAUGUGAAAG [salish99_ex4_r3_007] (puzzle: Exclusion 4)
[1]
  apparent KD of MS2 coat protein: 0.0222 µM
[2]
  apparent KD of MS2 coat protein: 0.0174 µM
[3]
  apparent KD of MS2 coat protein: 0.0157 µM

## GAAAGGGUAGGAUAUACGAAAAAAAAGGGUAGAAAAAAAACACAUGAGGAUCACCCAUGUAGAAGGACCAAAAG [salish99_ex2_r3_033] (puzzle: Exclusion 2)
[1]
  apparent KD of MS2 coat protein: 0.0402 µM
[2]
  apparent KD of MS2 coat protein: 0.0309 µM
[3]
  apparent KD of MS2 coat protein: 0.0272 µM
